Reference: article PMC6557205, “Functional interplay between YY1 and CARM1 promotes oral carcinogenesis”

Biological target: His-YY1 full length (UniProt P25490 1-414)
Assay: EMSA; unlabelled probe competes; anti-His supershift; EMSA buffer 10% glycerol, 75 mM KCl, 10 mM HEPES (pH not stated), 5 mM MgCl2; 30 C, 30 min (Fig 7F: 15 min methylation + 15 min binding); 5% native PAGE in 0.5X TBE at 4 C
Settings: protein: recombinant; tags: His (pET28b); label: 32P 5' end label on one strand; blunt

His-YY1 full length, sequence (P25490 whole entry): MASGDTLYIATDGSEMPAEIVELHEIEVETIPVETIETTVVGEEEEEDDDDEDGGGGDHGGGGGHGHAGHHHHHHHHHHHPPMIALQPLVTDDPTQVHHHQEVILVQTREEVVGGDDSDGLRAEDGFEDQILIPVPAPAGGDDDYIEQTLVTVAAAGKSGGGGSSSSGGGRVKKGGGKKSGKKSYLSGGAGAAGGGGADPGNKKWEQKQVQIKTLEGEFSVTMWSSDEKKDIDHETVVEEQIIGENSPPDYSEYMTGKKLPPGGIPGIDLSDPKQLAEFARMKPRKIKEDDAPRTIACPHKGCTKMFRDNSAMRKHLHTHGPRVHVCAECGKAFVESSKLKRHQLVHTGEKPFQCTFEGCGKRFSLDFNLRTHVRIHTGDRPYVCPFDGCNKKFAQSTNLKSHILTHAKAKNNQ

B1: CARM1proYY1_BS1 (dsDNA)
DNA 1: GGGACCTCTGGATCCCATGGTTGGATGGCTGGGGGGTGGA
DNA 2: TCCACCCCCCAGCCATCCAACCATGGGATCCAGAGGTCCC
Does B1 bind?
Result: binds
